From the nanobody polyreactivity screen of Harvey et al. (2022)

Test: yeast display, Sf9 membrane polyspecificity reagent, FACS + sequencing; frameworks hold sequencing errors
Procedure, shortened: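 Galactose induction of a Saccharomyces cerevisiae BJ5465 synthetic nanobody display library ran 36–48 hours. The cells were then stained for 1 hour at 4 °C with 10% biotinylated, detergent-solubilized Sf9 membrane reagent, pulled down on streptavidin microbeads and FACS-sorted into low and high (top ~1%) gates on expression and reagent-binding fluorescence. Labels for polyreactivity follow the gate of origin.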

For “QDQLVESGGGFVQAGGSLRLSCAASGSIFLINAMGWYRQAPGKERELVAAISWRGGTTYYADSVKGRFTISRDNAKNSVYLQLNSLKPEDTAVYYCAAYGGRFRGPTRYDYWVQGTQVTVSS”, which “polyreactivity (PSR sort gate)” value is on record?
The value was “high polyreactivity”.

For “QDQLVESGGGIVQAGGSIRLSCAASGNTFGWYAMGWYRKAPGKERELVASISSSGSTNYADSVKGRFTISRDNAKNTVYLQMNSLKPEDTAVYYSNADLTQYLGPVYEYVYWGQGTQVTVSS”, which “polyreactivity (PSR sort gate)” value is on record?
Its value is “low polyreactivity”.

With “QDQLVESGGGIVQAGGSLRLSCAASGFTFFANTMGWSRQAPGKERELVAVISSTVGYTYYADSVKGRFTISRDNAKNTVYLQMNSLKPEDTAVYYCAAKSIYDGFPYYLFDYWGQGSQVTVSS” as the sequence, how does the “polyreactivity (PSR sort gate)” value read?
The value was “high polyreactivity”.

Which “polyreactivity (PSR sort gate)” value does the source give for “QDQLVESGGGIVQAGGSLRLSCAASGSTIFYYAMGWYRQAPGKERELVAASSQRGGSTRYADSVKGRFTISRDNAKNTVYLQINSLKPEDSAVYYCAAARSPYKYSYWGQGTQVTVSS” here?
Its value is “high polyreactivity”.

For “QDQLVESGGGIVQAGGSLRLSCAASGSTIPSYAMGWYRQAPGKERELVASITYSDGTTRYADSVKGRFTISRDNAKNTVCLQMNRLKPVDTAVYYCNAVYDREGMDYWGQGTQVTVSS”, which “polyreactivity (PSR sort gate)” value is on record?
The value was “low polyreactivity”.

With “QDQLVESGGGLDQAGGSLRLSGAASGGILPRYAMGWYRQAPGKERELVAGITRGGSTYYADSVKGRFSISRDNAKNTVYLQMNSLKPEDTAVYYCAKYGYQTGIFYYWGQGTQVTVSS” as the sequence, how does the “polyreactivity (PSR sort gate)” value read?
The value was “high polyreactivity”.

For “QDQLVESGGGLFQAGGSLRLSCAASGSIFGHYAMGWYRQAPGKERELVAAISWRGGSTYYADSVKGRFTISRDNAKNTVYIQMNSLKPEDTAVYYCAADRWDKAYDYWGQVTQVTVSS”, which “polyreactivity (PSR sort gate)” value is on record?
The value was “low polyreactivity”.

For “QDQLVESGGGLFQEGGSLRLSCSASGSTFWVNTIRWYRQAPGKATELVADISSGGNTYYAHSVKGRFTISRDNAKNTVYLQMNSLKTEDTAVYYCNADPFTRWVIRDDYGGQGTQVTVSS”, which “polyreactivity (PSR sort gate)” value is on record?
The value was “low polyreactivity”.

For “QDQLVESGGGLLQAGGSLRLSCASSGSIFANYVMGWYRQAPGKEREYFAGISRSGGSTYYADSVKGRFKISRDNAKNTVYLQMTSLKPEDTAVYYCNAGAGQRVSGHSFEYWGQGTQVTVSS”, which “polyreactivity (PSR sort gate)” value is on record?
The value was “high polyreactivity”.

Which “polyreactivity (PSR sort gate)” value does the source give for “QDQLVESGGGLVHAGGSLRLSCAASGRTFFVYAMGWYRHAPGKEREMVANINQGGGSTSYADSVKGRFTISRDNAKNNVYLQMNSLKPEDTAVYYCNADHYGIGYDPVPLGFVGYDYWGQGTQVTVSS” here?
The value was “low polyreactivity”.

For “QDQLVESGGGLVPAAGSLRLSCASSGFSFRRNAMGCYRQAPGKEREFVAGITSGGSTYYADSVKGRFTISRDNAKNTVYLLLNSLKPEDTAVYFCAATYRRRYGYWGQGTQVTVSS”, which “polyreactivity (PSR sort gate)” value is on record?
Its value is “high polyreactivity”.

Which “polyreactivity (PSR sort gate)” value does the source give for “QDQLVESGGGLVQAGASLRLSCAASGSNGYYAMGWYRQAPGKERELVAVISRSGTGTYYADSVKGRFTISRDNAKNSVYLQMNSLKPEDTAVYYCNAETYTYRYEYDYWGQGTQVTVSS” here?
Its value is “high polyreactivity”.

With “QDQLVESGGGLVQAGCSLRLSCAASGLIFNYKVMGWYRHAPGKERELVAAISRGGSTYYADSVKGRFTFSRDNAKNTVYLQMNSLKPEDTAVYYCAARYRSRYDYWGQGTQVTVSS” as the sequence, how does the “polyreactivity (PSR sort gate)” value read?
Its value is “high polyreactivity”.

Which “polyreactivity (PSR sort gate)” value does the source give for “QDQLVESGGGLVQAGCSLRLSCAASGSTIPYNAMGWYRQAPGKERELVAAITWRAGRTYYADSVKGRFTISRDNAKITVYLQMNSLKAEDTAVYDCAKSYQRGVNHYEYWGQGTQVTVSS” here?
Its value is “high polyreactivity”.

With “QDQLVESGGGLVQAGGRLRLSCAASGLMFYYYAMGWYIQAPGKEREFVAAISRSGGITRYADSVKGRFTISRDNAKNTVYLQMNRLKPEDTAVYYCAAAVGSVRYDYWGQGTQVTVSS” as the sequence, how does the “polyreactivity (PSR sort gate)” value read?
The value was “high polyreactivity”.

Which “polyreactivity (PSR sort gate)” value does the source give for “QDQLVESGGGLVQAGGSHRLSCAASGFIIGYYAMGWYRQAPGKEMELVASIRRGGSTYYADSVKGRFTISRDNAKNTVYLQMNSLKPEDTAVYYCAAQRSVVGWWSRTSLYGDSDYWGLGTQVTVSS” here?
Its value is “high polyreactivity”.

Which “polyreactivity (PSR sort gate)” value does the source give for “QDQLVESGGGLVQAGGSLCLSCAASGITFRFYAMGWNRQAPGKERELVAAISWSGGRTYYADSVKGRFTISRDNAKNTVYLQMNSLKPEDTAVYYCAAEASSVPGYDYWGEGTQVTVSS” here?
The value was “low polyreactivity”.

For “QDQLVESGGGLVQAGGSLGLSCAASGITFDLYDMGWYRQAPGKERELVAAITDAHSTYYADSVKGRFTISRDNAKNTVYLQMNSLKPEDTAVYYCAADFFYSVDSGHYDYWGQGTQVTVSS”, which “polyreactivity (PSR sort gate)” value is on record?
Its value is “low polyreactivity”.

With “QDQLVESGGGLVQAGGSLRISCAASGFTLKKYVMGWYRQAPGKERELVAAISSSGGSTYYADSVKGRFTISRDNAKNTVYLQMNSLKPEDTAVYYCAAVQSYAGFEYGYWGQGTQVTVSS” as the sequence, how does the “polyreactivity (PSR sort gate)” value read?
The value was “high polyreactivity”.

For “QDQLVESGGGLVQAGGSLRISCAASGSTFPLYAMGWYRQAPGKEMEFVAAIRWIGGSTYYADSVKGRFTISRDNAMNTVYLQMNSLKPEDTAVYYCAADYVVSAFDYWGQGTQVTVSS”, which “polyreactivity (PSR sort gate)” value is on record?
Its value is “low polyreactivity”.

With “QDQLVESGGGLVQAGGSLRISCGASGRIFDIYAMGWYRQAPGKERELVADITSGGSTYYADSVQGRFTISRVNAKNTVYLQMNSLKPEDTAVYYCAARLFADYWGQGTHVTVSS” as the sequence, how does the “polyreactivity (PSR sort gate)” value read?
Its value is “low polyreactivity”.

Which “polyreactivity (PSR sort gate)” value does the source give for “QDQLVESGGGLVQAGGSLRLICAASGFTFRWYSMGWYRQAPGKERELVADISRGGSTNYADSVKGRFTISRDHAKNSVYLQMNSLTPEDTAVFYCAATQRKYGYKSYYYWGQGTQVTVSS” here?
Its value is “high polyreactivity”.

For “QDQLVESGGGLVQAGGSLRLSCAASASIFNVNTMGWYRQAPGKERELVAAISYSGGSTYYADSVKGRFTISRDIAKNTVYLQMISLKPEDTAFYYCNVSPTTTVDGGGYDSWGQGTQVTVSS”, which “polyreactivity (PSR sort gate)” value is on record?
Its value is “low polyreactivity”.

For “QDQLVESGGGLVQAGGSLRLSCAASGFIFADYAMGWYRQATGKERELVAAISWGGGSTYYADSVKGRFTISRDIAKNTVYLQMNSLKPEDTAVYYCAAANPGSEYDYWGQGTQVTVSS”, which “polyreactivity (PSR sort gate)” value is on record?
The value was “high polyreactivity”.

With “QDQLVESGGGLVQAGGSLRLSCAASGFIFLPYVMGWYRQAPGKERELVAAISGGGGITYYADSVKGRFTISRDNAKNTVYLQMNSLKPEDTAVYYCAARRQRFGYWGQGTQVTVSS” as the sequence, how does the “polyreactivity (PSR sort gate)” value read?
The value was “low polyreactivity”.

With “QDQLVESGGGLVQAGGSLRLSCAASGFIFSPYAMGWYRQAPGKERELVAAINGGGRTYYADSVKGRFTISRDNAKNTVYLQMNILKPEDTAVYYCAVDPISQGHMDYWGQGTLVTVSS” as the sequence, how does the “polyreactivity (PSR sort gate)” value read?
Its value is “low polyreactivity”.

Which “polyreactivity (PSR sort gate)” value does the source give for “QDQLVESGGGLVQAGGSLRLSCAASGFIIQGNAMGGYRQAPRKERELVAAISSSVSTYYADSVKGRFTISRDNAKNTVYLQMNSLKPEDTAVYYCNSGFPLSLWLGDYWGQGTQVTVSS” here?
The value was “low polyreactivity”.

For “QDQLVESGGGLVQAGGSLRLSCAASGFIVHRYVMGWYRQAPGKERELVAAISSGGSTNYADSVKGRFTISRDNAKNSVYLQMTSLKPEDTAVYYCAADGFYYRNWGRFRYYYWGQGTQVNVSS”, which “polyreactivity (PSR sort gate)” value is on record?
The value was “low polyreactivity”.

Which “polyreactivity (PSR sort gate)” value does the source give for “QDQLVESGGGLVQAGGSLRLSCAASGFTFGDYAMGWYRQEPGKERELVAAISWSGSNTYYADSVKGRFTISRDNAKNTVYLQMNSLKPEDTAVYYCNADYDPEDMDYWGQGTQVTVSS” here?
Its value is “low polyreactivity”.

For “QDQLVESGGGLVQAGGSLRLSCAASGFTFSVNAMGWYRQAPGKERELVAAITRGRSTSYADSVKGRFTISRDNAKNTVYLQKNSLKPEDTAVYYCAASYSGGTWSGYYYWGQGTQVTVSS”, which “polyreactivity (PSR sort gate)” value is on record?
Its value is “high polyreactivity”.

Which “polyreactivity (PSR sort gate)” value does the source give for “QDQLVESGGGLVQAGGSLRLSCAASGFTFSWNAMGWYRQSPGKERQLVAAISWSGGSTYYADSVKGRFTISRDNAKNTVYLQMNSLKPEDTAVYYCNAGSTRAASRVRYDYWGQGTQVTVSS” here?
The value was “high polyreactivity”.

With “QDQLVESGGGLVQAGGSLRLSCAASGFTFTRYAMGWYRQAPGKERELVAAITQRGGSTYYADSVKGRFTISRDNAKNTVYLQMNSLKPEDTAVYYCAAVQTRRWYGYLYNYWGQGTQVTVSS” as the sequence, how does the “polyreactivity (PSR sort gate)” value read?
The value was “high polyreactivity”.

With “QDQLVESGGGLVQAGGSLRLSCAASGFTFTRYAMGWYRQAPGKERELVAAITRRSGRTYYADSVKGRFTISRDNAKNTVYLQMNSLKPEDTAVYYCNAVRTTPSGSLPLAYDYWGQGTQVTVSS” as the sequence, how does the “polyreactivity (PSR sort gate)” value read?
The value was “high polyreactivity”.

For “QDQLVESGGGLVQAGGSLRLSCAASGFTFVINDMGWYRQAPGKERELVADITSGGDTYYADSVKGRFTISRDNAKNTVYLQMNSLKPEDTAVYYCNTDTYFPLYDYWGQGTQVTVSS”, which “polyreactivity (PSR sort gate)” value is on record?
Its value is “low polyreactivity”.

With “QDQLVESGGGLVQAGGSLRLSCAASGIIFGYYAMGWDRQAPGKERELVAAISSGGTTSYADSVKGPFTISRDNEKNTVSLQMNSLKPEYTAVYYCAARDGYDGFYYWGQGTQVTVSS” as the sequence, how does the “polyreactivity (PSR sort gate)” value read?
Its value is “low polyreactivity”.

With “QDQLVESGGGLVQAGGSLRLSCAASGIIIWRYAMGRYRQAPRKERELVAGITSRGGSTYYADSVKGRFTISRDNAKNTVYLQMNSLKPEDTAVYYCNADWYGLLWWGVDYWGQGTQVTVSS” as the sequence, how does the “polyreactivity (PSR sort gate)” value read?
The value was “high polyreactivity”.

Which “polyreactivity (PSR sort gate)” value does the source give for “QDQLVESGGGLVQAGGSLRLSCAASGITFDYYVMGWYRKAPGKEMELVAAISWSGGTTYYADSVKGRFTISRDNAKNTVSLQMNSLKPEDTAVYYCNAEHTGSFYGGYPWEMEYWGQGTQVTVSS” here?
Its value is “low polyreactivity”.

For “QDQLVESGGGLVQAGGSLRLSCAASGITFRWYAMGWYRQAPGKERELVAAITSVDSTDYADSVKGRFTISRDNAKNTVYLQMNSLKPEDTAVYYCAARIGTGVLPGRGANSHMDYWGQGTQVTVSS”, which “polyreactivity (PSR sort gate)” value is on record?
Its value is “low polyreactivity”.

With “QDQLVESGGGLVQAGGSLRLSCAASGITFRYYAKGWYRPSPGKERELLAAISTSGGNTYYADSVKGRLTISRDNAKNTVYLQMKSLKPEDTAVYYCDVDGEYWYEYDGDYWGQGTQVNVSS” as the sequence, how does the “polyreactivity (PSR sort gate)” value read?
The value was “low polyreactivity”.

For “QDQLVESGGGLVQAGGSLRLSCAASGITFYGYAMGWYRQAPGKERELVAAISESGGSTYYADSVKGRFTISRDNAKNTVYLQMNSLKPEDTAVYYCAAQGYSVYCYSNYWGQGTQVTVSS”, which “polyreactivity (PSR sort gate)” value is on record?
The value was “low polyreactivity”.

With “QDQLVESGGGLVQAGGSLRLSCAASGITFYRNAMGWYRQAPGKERELVAAITSGTRTNYADSVKGRFTISRDNAKNTVYLQMNSLKPEDTAVYYCAKGGRSSSPLYRFEYWGQGTQVTVSS” as the sequence, how does the “polyreactivity (PSR sort gate)” value read?
The value was “high polyreactivity”.
